Measured values as given in the supplement of paper PMC9170038.

Test system: MS2 coat protein
Experiment: apparent KD of MS2 coat protein; designed switch direction (-1 OFF switch, 1 ON switch): -1; higher = weaker reporter binding
In short: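 Apparent KD, taken as the median over clusters for each design, was obtained by curve-fitting normalised cluster fluorescence. Designed RNA switches had been transcribed on Illumina chips by stalled E. coli RNA polymerase and titrated with SNAP-549-labelled MS2 coat protein, doubling from 0.7 or 1.5 nM to 3 µM.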

[1] = Eterna round: R95, input ligand: microRNA oligo, concentration not stated
[2] = input ligand: microRNA oligo, concentration not stated
[3] = Eterna round: R95, input ligand: FMN 200 uM
[4] = Eterna round: R95, input ligand: none

Sequence	apparent KD of MS2 coat protein [1] [µM]	apparent KD of MS2 coat protein (input ligand: FMN 200 uM) [µM]	apparent KD of MS2 coat protein (input ligand: none) [µM]	other results
CCUUUGUCAGGAUAUCGAAAAGGGAGGCCAAAAGCCUCCGGUGAGAAGGGACAUGAGGAUCACCCAUGUGAAAA [Usleaor] (puzzle: Exclusion 4)	0.0379			
AGAGUGCUGCGAGGAUAUACAUGAGGAUCACCCAUGUAAACCUGUGAGGCAAAGCCUCACAGGAUGUAGAAGGCGCAGUACUCA [Mat - Exclusion NG 2 - Mod of JL - D40] (Eterna round: R96, puzzle: Exclusion NG 2)		0.02	0.0195	apparent KD of MS2 coat protein [2]: 0.00882 µM
AACCUGAGGCAAAGCUUUAGGUGUACAUGAGGAUCACCCAUGUAGGAUAUGGUAGGCAAAGCUUACCAGAAGGACAUUAUGAUG [Mat - Exclusion NG 3 - Mod of JL - D51] (Eterna round: R96, puzzle: Exclusion NG 3)		0.104	0.0629	apparent KD of MS2 coat protein [2]: 0.0495 µM
AGUCGGUCAGGAUAUGCAAACGUGGACAUGAGGAUCACCCAUGUAACGUGGGCCUGGUUUGUAGAAGGGACGAGCA [EX5 #86] (Eterna round: R97, puzzle: Exclusion 5)		0.0351	0.0345	
GUCGAGUGAGGAUAUGGUGAGUAGUGCCUGAGCGCUGCUCACCAGAAGGCACAUGAGGAUCACCCAUGUAUGUC [JL-ex4-2.04 denovo] (puzzle: Exclusion 4)	0.0123			
AACAGUACAGGAUAUACAUGAGGAUCACCCAUGUGAGAUUUAAGUGGCGUACCACAAAGUAGAAGGGUACUGGA [JL Maslow Revisted mod 5] (Eterna round: R96, puzzle: Exclusion 3)		0.23	0.0373	apparent KD of MS2 coat protein [2]: 0.0296 µM
GAUGGAGAGCAGGAUAUCUUGGGUAAGCAUCAUAGAGAAGGGCUCACAUGAGGAUCACCCAUGUGGUCCUAGAA [Ateedza] (puzzle: Exclusion 6)	0.0162			apparent KD of MS2 coat protein [3]: 0.0307 µM; apparent KD of MS2 coat protein [4]: 0.0149 µM
CGAGUGUAAGGAUAUUCGGCGCCAGGGAACAACCUAGCGUAGAAGAAGGUACAUGAGGAUCACCCAUGUGGUUA [Riatees] (puzzle: Exclusion 4)	0.151			
GUCCAGUUAGGAUAUCAAUGCCACAACAUGAGGAUCACCCAUGUUUGGGUCCCUCACCAAUGAGAAGGAACGGGAC [Esteenedso] (puzzle: Exclusion 5)	0.0321			
UCGCUGCGAGGAUAUACGUUUGCGCGUUUUCGUUUGCGCGUACAUGAGGAUCACCCAUGUAGAAGGCGCGCGGC [Apr-15 SS2-11] (puzzle: Exclusion 2)	0.0122			
AUAAAGAAUGUUAGGAUAUUGGUGAAUAGGCUGACUAAGAAGGAACAUGAGGAUCACCCAUGUAAAAUGGAAAA [Readima] (puzzle: Brourd's mod of Exclusion 4)	0.023			apparent KD of MS2 coat protein [3]: 0.0667 µM; apparent KD of MS2 coat protein [4]: 0.0291 µM
AUCUUGUCAGGAUAUCUGACAAGUGACGAAAGUCACAGUUCAGAGAAGGUACAUGAGGAUCACCCAUGUAGAAC [Ex4-3: 40] (puzzle: Exclusion 4)	0.0191			
GGCCUGUGAGGAUAUUAGUAGUAGAUAAAAUAAACUAUUACUGAGAAGGCACAUGAGGAUCACCCAUGUUGGCC [Eli x4 4.05] (Eterna round: R97, puzzle: Exclusion 4)		0.0203	0.0164	
CACGGCUUAGGAUAUACAUGAGGAUCACCCAUGUGGGAAAGCCAAGGCGUGGUAAAGUGUAGAAGGAAGAAGGA [Solaedra] (puzzle: Exclusion 3)	0.0125			
GACCGGACGUGGUCUGGUAACAUGAGGAUCACCCAUGUUGGUCUAAGAACAUGCCUUUUGCACGCUCGUCUUAUAUU [JR_SV3TOV1_Sub062] (puzzle: Sensor v3, turn-off variant 1)	0.0296			apparent KD of MS2 coat protein [3]: 0.0662 µM; apparent KD of MS2 coat protein [4]: 0.0805 µM
UAAUAAAAGGAGGAUAUCGUAUCGGAAACGAUACGAGAAGGCUUAACAUGAGGAUCACCCAUGUUCCUCAAUAA [Mat - Exclusion 6 - Eli Mod - D90] (puzzle: Exclusion 6)	0.0286			apparent KD of MS2 coat protein [3]: 0.0593 µM; apparent KD of MS2 coat protein [4]: 0.0326 µM
AUUUAGUCAGGAUAUUAGUAGUAAAUGAAUAAAAUUAUUACUGAGAAGGGACAUGAGGAUCACCCAUGUGUCUA [Mat - Exclusion 4 - Eli Mod - D8] (Eterna round: R97, puzzle: Exclusion 4)		0.06	0.0285	
AAGUACUACAAGCUUCGGGACAUGAGGAUCACCCAUGUUCGUCUUAUUGAUCUAGGUACGCUGACGUACCUAGAUCA [Mat - Sensor v3 - turn-off var 1 - JL Mod - D12] (puzzle: Sensor v3, turn-off variant 1)	0.0594			apparent KD of MS2 coat protein [3]: 0.0149 µM; apparent KD of MS2 coat protein [4]: 0.0147 µM

Sequence	apparent KD of MS2 coat protein [1] [µM]	apparent KD of MS2 coat protein (input ligand: FMN 200 uM) [µM]	apparent KD of MS2 coat protein (input ligand: none) [µM]	other results
CAGUACUGAGGAUAUACAUGAGGAUCACCCAUGUGCCUCAGGUAGGAUACUACCAUUAGUAGAAGGCAGUACUG [Fiskers Ex 3 828 mod 18] (puzzle: Exclusion 3)	0.128			
CACGUGAGAGGAUAUACAUGAGGAUCACCCAUGUAUACAGCAGGGUAUGAAGACUUGGGUAGAAGGCUCGCGUG [Eternabot (L2) Solution 39] (Eterna round: R97, puzzle: Exclusion 3)		0.173	0.27	
AUGUUACAUGAGGAUCACCCAUGUGAGGAUAUGAGUCAGUCACGGUGACGUGGCUGACUCAGAAGGCACAAAGG [JL-ex1-4.38 salish99 mod] (Eterna round: R97, puzzle: Exclusion 1)		0.754	0.18	
GAGCUAUGAGGAUAUGCAUAUAUACGGUUUCGUGUGGUACUACAUGAGGAUCACCCAUGUAGAAGGCGUGGCUG [JL-ex2-2.05 mat747 mod] (puzzle: Exclusion 2)	0.0142			
CCUCCACAUGAGGAUCACCCAUGUCAGGAUAUCGUGUGUUUUUUUUCGGUCGCGCGUGCGAGAAGGGACGUCUU (puzzle: Exclusion 1)	0.0237			
CGUAUCUUUCACGUGAGUAGUGGGUGCAACAGGUGGGUCACAUGAGGAUCACCCAUGUACUCACUUGCUCGUCUUAU [Grok-var2-07] (puzzle: Sensor v3, turn-off variant 2)	0.014			apparent KD of MS2 coat protein [3]: 0.024 µM; apparent KD of MS2 coat protein [4]: 0.0218 µM
AUACAGGAUGUCAGGAUAUGUUGUAGGUUCCGACGACAGAAGGGACAUGAGGAUCACCCAUGUAGGCCUUUGCU [BmEX4 C.7] (Eterna round: R97, puzzle: Brourd's mod of Exclusion 4)		0.0314	0.0151	
UUUACAAGCUAAAGAUCCCACAUGAGGAUCACCCAUGUUCCUGGCCGUGAGGCUAGGUAAACUUUUGCUCGUCUUAU [JL TOV1 3.67] (Eterna round: R97, puzzle: Sensor, turn-off variant 1)		0.252	0.322	
GGUCAUCAAGUCAGGAUAUCGUCUGAUCAAUCAGGCGAGAAGGGACAUGAGGAUCACCCAUGUCGACUCAUCAG [Ex4 #7] (Eterna round: R97, puzzle: Brourd's mod of Exclusion 4)		0.0853	0.0194	
GGAAUACCCUCGAGUUAUCACAUGAGGAUCACCCAUGUCCCAAGCCUUUUGCUCUGAGCUGCGUAUACGCAGAUGUA [Eternabot (Original) Solution 23] (Eterna round: R97, puzzle: Sensor, turn-off variant 1)		0.112	0.128	
GAGAAGGUAGGAUAUACGAAUAAAAAGGGUAGAAGAAGAACACAUGAGGAUCACCCAUGUAGAAGGACCAAGAG [Mat - Exclusion 2 - Mod of my Tesla design - D22] (puzzle: Exclusion 2)	0.0172			apparent KD of MS2 coat protein [3]: 0.044 µM; apparent KD of MS2 coat protein [4]: 0.0176 µM
AAUUGCUAGCCGAUCCUCCACAUGAGGAUCACCCAUGUGCUCGUCUUGUAAUGUGCUAUCACGAAAGUGAUAGUACA [Sensor v3, turn-off variant 1 (MOD of Eli's v1-59 v.4)] (puzzle: Sensor v3, turn-off variant 1)	0.0134			apparent KD of MS2 coat protein [3]: 0.413 µM; apparent KD of MS2 coat protein [4]: 0.315 µM
GCGAUGUGAGGAUAUACAAGGUGUGAGAGUGCUUGAACGUAACAUGAGGAUCACCCAUGUAGAAGGUAUGUGAU [Eternabot (L1) Solution 29] (Eterna round: R97, puzzle: Exclusion 2)		0.109	0.181	
AAUGUCUGAGGAUAUCGUUUUUUGUACAUGAGGAUCACCCAUGUCCAAUUUUGUAUAUUACGAGAAGGCAGUGGAA [JR_E5_Sub089] (puzzle: Exclusion 5)	0.0146			
CCUCUUGGGCAAGGAUAUCCUGUGCGGUUCCGGCUCGUGUCUGUCACAUGAGGAUCACCCAUGUGGGAGAAGGUGCCUGCGGUC [Design 80] (Eterna round: R96, puzzle: Exclusion NG 2)		0.013	0.0163	apparent KD of MS2 coat protein [2]: 0.0107 µM
UCAGGCAAGUGUACAGCCAACAUGAGGAUCACCCAUGUCGGGAGAAGGACUGUUACACACCGCUCGUCUUACUUGCC [Eternabot (Original) Solution 35] (Eterna round: R97, puzzle: Sensor, turn-off variant 1)		0.0183	0.0231	
UGUUGUUACGCAGGAUAUGAGGAUCACCCAUAUCAGGAUAUCGAAAGAGAAUUUCUGAGGAUCACCCAGAAGGGCGGGUUAACA [pwkr exNG2 2xF5 2xFMN.37] (Eterna round: R96, puzzle: Exclusion NG 2)		0.125	0.0477	apparent KD of MS2 coat protein [2]: 0.0403 µM
